Data on three molecules can be found in US20240141039A1 (AGENUS, published 2024).

Test [1] addresses T1, full-length isoform 2 ECD of cynomolgus monkey CD96 (His-tagged) (cynomolgus monkey).
T1 construct: also called His-tagged isoform 2 of cynomolgus monkey CD96; cyno CD96 extracellular domain isoform 2
T1 chain: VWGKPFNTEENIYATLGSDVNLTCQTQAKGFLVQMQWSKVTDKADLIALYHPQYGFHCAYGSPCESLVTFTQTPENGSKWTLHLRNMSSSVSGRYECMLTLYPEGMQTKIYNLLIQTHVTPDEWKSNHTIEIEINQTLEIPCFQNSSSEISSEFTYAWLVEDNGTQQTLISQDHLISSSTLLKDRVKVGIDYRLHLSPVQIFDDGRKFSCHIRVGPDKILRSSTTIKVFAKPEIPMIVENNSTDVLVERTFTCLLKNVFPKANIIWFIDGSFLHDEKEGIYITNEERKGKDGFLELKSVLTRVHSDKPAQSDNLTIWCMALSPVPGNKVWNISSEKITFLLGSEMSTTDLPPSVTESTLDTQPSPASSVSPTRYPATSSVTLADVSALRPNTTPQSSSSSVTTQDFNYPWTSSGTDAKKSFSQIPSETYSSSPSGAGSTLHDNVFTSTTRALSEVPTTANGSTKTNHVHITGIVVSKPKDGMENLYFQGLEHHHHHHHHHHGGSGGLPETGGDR
As to the kind of experiment: SPR Biacore T200, Protein A capture, 1:1 model, experiment #2. The method, then:
Briefly, surface plasmon resonance experiments were performed using a Biacore T200 instrument, and the association rate (kₐ), dissociation rate (kd), and dissociation constant (KD) were calculated from each experiment using a 1:1 binding model with Biacore T200 Evaluation Software.
Multispecific molecules were captured using a 30-sec injection at a flow rate of 10 μl/min to reach about 350 resonance units (RUs). […] The sensor chip was regenerated between cycles with two 30-sec injections of 10 mM glycine, pH 1.5. Sensorgrams were evaluated and fit to a simple Langmuir 1:1 interaction model using the global data analysis option of BIAevaluation 3.0 software. Data quality was verified by visually inspecting deviations and curve fitting, and by evaluating the parameters of Rₘₐₓ, Chi2, and Tc.
For orientation: Surface plasmon resonance follows binding to a sensor surface in real time, without labels.

In test [2] the target is T2, wild type full-length human TIGIT expressed on cells (human, UniProt Q495A1 22-244).
T2 construct: whole, on cells; also called human TIGIT-CHO; human TIGIT CHO cells
T2 sequence (looked up): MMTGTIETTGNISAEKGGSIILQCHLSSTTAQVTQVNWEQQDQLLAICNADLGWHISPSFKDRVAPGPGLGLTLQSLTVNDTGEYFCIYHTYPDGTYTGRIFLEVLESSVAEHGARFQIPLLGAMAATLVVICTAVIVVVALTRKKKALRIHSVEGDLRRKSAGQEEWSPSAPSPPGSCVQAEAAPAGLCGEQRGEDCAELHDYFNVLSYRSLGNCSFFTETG
Description: flow cytometry, blocking of CD155-Fc-PE binding to human TIGIT CHO cells, geomean of 3 experiments. The method, then: A 4× concentrated intermediate stock of each antibody was prepared in a microplate. Antibodies were serially diluted 1-to-4 in FACS buffer. […] Lastly, 25 μL of human TIGIT-CHO cells, prepared as described above, were added to each well. After a 30-minute incubation on ice, the cells were washed twice with cold FACS Buffer, and the cells were analyzed by flow cytometry (BD LSR Fortessa Flow Cytometer). The data were analyzed using the FlowJo software by sequentially gating on the FSC-A vs. SSC-A and SSC-H vs. SSC-A. Mean fluorescence intensity (MFI) values for PE were calculated, and the data were plotted by GraphPad Prism software and analyzed as described above.

Test [3] addresses T3, full-length human FcγRIIIa variant V/V expressed on CHO cells (human, UniProt P08637 17-254).
T3 construct: whole, on cells; also called human FcγRIIIa-CHO (variant V/V); human FcγRIIIa (V/V) CHO cells
Description: flow cytometry, human FcγRIIIa (V/V) CHO cells, 2 experiments. The method, then:
(§1) For the antibody binding assay, a frozen aliquot of human FcγRIIIa-CHO cells (variant V/V or variant F/F) was thawed at 37° C. and then transferred to a tube containing DPBS supplemented with 0.5% Bovine Serum Albumin and 0.05% Sodium Azide (FACS Buffer). Cells were centrifuged at 300 g for five minutes. The supernatant was discarded, and cells resuspended in FACS buffer were seeded in a 96-well U-bottom tissue culture plate at a density of 2×10⁵ cells per well in 50 μL. In a separate microplate, a 2× concentrated intermediate stock of each antibody was prepared. Antibodies were serially diluted 1-to-4 in FACS buffer. A total of 11 working dilutions ranging from 60 μg/mL to 0.000057 μg/mL were prepared. Fifty microlitres of each dilution were then transferred to the microplate containing human FcγRIIIa-CHO (variant V/V or variant F/F) cells. The cells were then incubated for 45 minutes at 4° C. […] After a 30-minute incubation on ice, the cells were washed twice with cold FACS Buffer, and the cells were analyzed by flow cytometry (BD LSR Fortessa Flow Cytometer). The data were analyzed using the FlowJo software by sequentially gating the FSC-A vs. SSC-A, and SSC-H vs. SSC-A. Mean fluorescence intensity (MFI) values for PE were calculated, and the data were plotted by GraphPad Prism software.
In general terms: A flow cytometer gives signals particle by particle.

Test [4] addresses T2, wild type full-length human TIGIT …. As to the kind of experiment: flow cytometry, dual binding: CHO hu-TIGIT cells with antibody and soluble huCD96-His, Alexa Fluor 488 anti-His detection. The text has this: Cells were centrifuged at 300 g for five minutes.
Antibodies were serially diluted 1-to-3 in FACS buffer.

The target is the same in test [5]. Description: flow cytometry, human TIGIT CHO cells, geomean of 2 experiments. The protocol:
as §1, with “TIGIT-CHO” for “FcγRIIIa-CHO”, “cells” for “cells (variant V/V or variant F/F)”, “TIGIT-CHO” for “FcγRIIIa-CHO (variant V/V or variant F/F)”

T3 sequence (P08637 other isoform, or with tags, fused parts or gaps mutant limits assumed): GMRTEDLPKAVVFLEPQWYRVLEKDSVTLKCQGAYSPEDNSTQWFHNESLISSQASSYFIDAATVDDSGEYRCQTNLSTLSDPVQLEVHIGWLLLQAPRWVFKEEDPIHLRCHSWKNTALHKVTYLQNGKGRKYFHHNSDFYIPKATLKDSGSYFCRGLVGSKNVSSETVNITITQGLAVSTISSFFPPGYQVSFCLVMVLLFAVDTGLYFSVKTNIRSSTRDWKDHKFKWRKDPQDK

B1: anti-TIGIT×CD96 multispecific molecule BA123 (bispecific antibody, human IgG1, kappa, lambda)
heavy 1: QVQLVQSGAEVKKPGASVKVSCKASGYTFTSYGISWVRQAPGQGLEWMGWISAYNANTNYAQKLQGRVTMTTDTSTSTAYMELRSLRSDDTAVYYCARSAGVLGGMDVWGRGTLVTVSSASTKGPSVFPLAPSSKSTSGGTAALGCLVKDYFPEPVTVSWNSGALTSGVHTFPAVLQSSGLYSLSSVVTVPSSSLGTQTYICNVNHKPSNTKVDKRVEPKSCDKTHTCPPCPAPELLGGPDVFLFPPKPKDTLMISRTPEVTCVVVDVSHEDPEVKFNWYVDGVEVHNAKTKPREEQYNSTYRVVSVLTVLHQDWLNGKEYKCKVSNKALPAPIEKTISKAKGQPREPQVYTLPPSREEMTKNQVSLSCAVKGFYPSDIAVEWESNGQPENNYKTTPPVLDSDGSFFLVSKLTVDKSRWQQGNVFSCSVMHEALHNHYTQKSLSLSPG
light 1: not shown
heavy 2: EVQLVQSGAEVKKPGSSVKVSCKASGYTFASYGISWVRQAPGQGLEWMGGITPFFNRVDVAEKFQGRVTITADKSTSTAYIELSSLRSEDTAVYYCARDLRRGGVGDAFDIWGRGTLVTVSSASTKGPSVFPLAPSSKSTSGGTAALGCLVKDYFPEPVTVSWNSGALTSGVHTFPAVLQSSGLYSLSSVVTVPSSSLGTQTYICNVNHKPSNTKVDKRVEPKSCDKTHTCPPCPAPELLGGPDVFLFPPKPKDTLMISRTPEVTCVVVDVSHEDPEVKFNWYVDGVEVHNAKTKPREEQYNSTYRVVSVLTVLHQDWLNGKEYKCKVSNKALPLPEEKTISKAKGQPREPQVYTLPPSREEMTKNQVSLWCLVKGFYPSDIAVEWESNGQPENNYKTTPPVLDSDGSFFLYSKLTVDKSRWQQGNVFSCSVMHEALHNHYTQKSLSLSPG
light 2: QSALTQPRSVSGSPGQSVTISCTGTSPDVGSHAYRSWYQQHPGKAPKLMIYEVSYRPSGVSNRFSGSKSGNTASLTISGLQAEDEADYYCSSYPPSSATVFGAGTKLTVLGQPKAAPSVTLFPPSSEELQANKATLVCLISDFYPGAVTVAWKADSSPVKAGVETTTPSKQSNNKYAASSYLSLTPEQWKSHRSYSCQVTHEGSTVEKTVAPTEC
notes: copies: 1 + 1 + 1 + 1
In test [1], B1 yielded a Kd of 42.7 nM, a dissociation rate constant (koff) of 0.00324 s⁻¹ and a kon of 75900 M⁻¹ s⁻¹.

B2: anti-TIGIT monospecific antibody BA148 (antibody, human IgG1, lambda)
heavy: EVQLVQSGAEVKKPGSSVKVSCKASGYTFASYGISWVRQAPGQGLEWMGGITPFFNRVDVAEKFQGRVTITADKSTSTAYIELSSLRSEDTAVYYCARDLRRGGVGDAFDIWGRGTLVTVSSASTKGPSVFPLAPSSKSTSGGTAALGCLVKDYFPEPVTVSWNSGALTSGVHTFPAVLQSSGLYSLSSVVTVPSSSLGTQTYICNVNHKPSNTKVDKRVEPKSCDKTHTCPPCPAPELLGGPDVFLFPPKPKDTLMISRTPEVTCVVVDVSHEDPEVKFNWYVDGVEVHNAKTKPREEQYNSTYRVVSVLTVLHQDWLNGKEYKCKVSNKALPLPEEKTISKAKGQPREPQVYTLPPSREEMTKNQVSLTCLVKGFYPSDIAVEWESNGQPENNYKTTPPVLDSDGSFFLYSKLTVDKSRWQQGNVFSCSVMHEALHNHYTQKSLSLSPGK
light: B1 light 2
notes: IgG1; also called anti-TIGIT IgG1 antibody BA148
B2 gave an IC50 in test [2] of 0.0084 µg/mL. Moreover, in test [3], a half-maximal effect (EC50) was put at 0.0455 µg/mL.

B3: anti-TIGIT×CD96 multispecific molecule BA127 (bispecific antibody, human IgG1, kappa, lambda)
heavy 1: QVQLVQSGAEVKKPGASVKVSCKASGYTFTTYALHWVRQAPGQRLEWMGWINTGSGDTKYSQKFQGRVTITRDTSASTAYMELSSLRSEDTAVYYCARSLGVYYGMDVWGQGTLVTVSSASTKGPSVFPLAPSSKSTSGGTAALGCLVKDYFPEPVTVSWNSGALTSGVHTFPAVLQSSGLYSLSSVVTVPSSSLGTQTYICNVNHKPSNTKVDKRVEPKSCDKTHTCPPCPAPELLGGPDVFLFPPKPKDTLMISRTPEVTCVVVDVSHEDPEVKFNWYVDGVEVHNAKTKPREEQYNSTYRVVSVLTVLHQDWLNGKEYKCKVSNKALPAPIEKTISKAKGQPREPQVYTLPPSREEMTKNQVSLSCAVKGFYPSDIAVEWESNGQPENNYKTTPPVLDSDGSFFLVSKLTVDKSRWQQGNVFSCSVMHEALHNHYTQKSLSLSPG
light 1: not shown
heavy 2: B1 heavy 2
light 2: B1 light 2
notes: Anti-CD96 arm = BA139, anti-TIGIT arm = BA150; copies: 1 + 1 + 1 + 1
On to B3, for which the half-maximal effective concentration (EC50 (read off the curve)) in test [4] is around 0.3 µg/mL. Besides, the response in test [5] was half-maximal at 0.033 µg/mL (EC50).

The Kd is the equilibrium constant for the complex coming apart. As a reminder, the koff is the first-order rate constant of dissociation. What is called kon is the second-order rate constant of association. What is called IC50 is the point on the concentration scale where inhibition reaches its midpoint. The term EC50 denotes the midpoint of the concentration-response curve. The EC50 (read off the curve) is the concentration at which the effect is half-maximal.
